B1: library; numbered along this chain (parent)
chain: MRKPRAAVGSGHRKQAASQEGRQKHAKNNSQAKPSACDGLARQPEEVVLQASVSSYHLFRDVAEVTAFRGSLLSWYDQEKRDLPWRRRAEDEMDLDRRAYAVWVSEVMLQQTQVATVINYYTGWMQKWPTLQDLASASLEEVNQLWAGLGYYSRGRRLQEGARKVVEELGGHMPRTAETLQQLLPGVGRYTAGAIASIAFGQATGVVDGNVARVLCRVRAIGADPSSTLVSQQLWGLAQQLVDPARPGDFNQAAMELGATVCTPQRPLCSQCPVESLCRARQRVEQEQLLASGSLSGSPDVEECAPNTGQCHLCLPPSEPWDQTLGVVNFPRKASRKPPREESSATCVLEQPGALGAQILLVQRPNSGLLAGLWEFPSVTWEPSEQLQRKALLQELQRWAGPLPATHLRHLGEVVHTFSHIKLTYQVYGLALEGQTPVTTVPPGARWLTQEEFHTAAVSTAMKKVFRVYQGQQPGTCMGSKRSQVSSPCSRKKPRMGQQVLDNFFRSHISTDAHSLNSAAQ

Variants of: B1
Assay: 8OG:A repair function score (normalized; synonymous = 0, nonsense = -1) (normalized log-likelihood score); higher = more repair activity (WT-like)
Settings: with 8OG:A DNA repair reporter (GFP) in HEK-293 MUTYH KO cells
Description: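 Saturation mutagenesis (NNN codon scan) of the MUTYH cDNA (521-aa nuclear isoform NM_001048174.1 / NP_001041639), stably expressed under doxycycline induction in HEK-293 MUTYH knockout cells. Cells were co-transfected with an 8OG:A-bearing GFP repair reporter plus mCherry and sorted 72 h later into GFP+ and GFP− bins, three replicates per tile. The Rosace log2 enrichment (GFP+ vs GFP−) was converted per tile to a normalized function score with synonymous variants centered at 0 and nonsense variants (codons 1-471) at -1; low-abundance variants were removed.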

8OG:A repair function score of substitutions, site by site:
L169: C -0.0691 | Q -0.00403 | W -0.0366 | V -0.409 | K -0.189 | R -0.105 | M 0.0203 | G -0.273 | T -0.186 | Y -0.104 | H -0.0549 | S -0.284 | D -0.386 | N -0.172 | P -0.645 | E -0.261 | I -0.337 | A -0.177
E160: R -0.136 | H -0.264 | D -0.104 | T -0.0143 | L -0.0898 | G -0.116 | Y -0.063 | S -0.0339 | V -0.00913 | F -0.0745 | K -0.0797 | Q 0.018 | W 0.0263 | C -0.0918 | I -0.0174 | N -0.0629 | M 0.0471 | P -0.814 | A 0.0427
G161: V -0.579 | S -0.13 | F -1.03 | R -1.15 | P -0.919 | H -1.12 | N -0.325 | M -0.776 | E -0.898 | D -0.688 | T -0.317 | K -1.07 | C -0.293 | Q -0.911 | A -0.00122 | Y -1.04 | I -0.841 | W -1.19 | L -1.01
G155: N -0.213 | P -0.0172 | I -0.489 | S -0.0824 | L -0.574 | E -0.691 | W -0.265 | V -0.116 | F -0.526 | M -0.629 | A 0.037 | H -0.388 | R -0.543 | T -0.218 | D -0.75 | Q -0.682 | C -0.117 | Y -0.667 | K -0.654
R154: Y -1.21 | E -1.23 | W -1.03 | T -1.16 | H -0.851 | V -1.04 | Q -1.06 | K -0.609 | G -1.12 | P -1.06 | N -0.885 | I -0.971 | M -1.16 | S -1.03 | F -1.05 | L -1.06
V166: Q -0.0914 | F -0.0998 | L -0.161 | A -0.1 | W 0.0741 | I 0.0212 | T -0.155 | G -0.466 | S -0.0616 | K -0.116 | M -0.0629 | H -0.183 | D -0.293 | N -0.124 | P -0.858 | R -0.182 | Y -0.184 | E -0.327 | C 0.0203
R156: M -0.207 | E -0.319 | Q -0.136 | K 0.00226 | L -0.142 | A -0.122 | W -0.133 | H -0.0809 | T -0.238 | I -0.152 | G -0.287 | P -0.341 | S -0.193 | V -0.117 | D -0.477 | Y -0.337 | F -0.3 | N -0.179 | C -0.162
K164: W -0.0721 | P -1.12 | V 0.027 | E -0.382 | M 0.168 | Q -0.101 | C -0.21 | L 0.0383 | T -0.103 | D -0.483 | S -0.168 | H -0.186 | Y -0.0367 | R -0.0158 | A -0.133 | I 0.0586 | N -0.37 | F 0.104 | G -0.431
E167: K 0.0784 | A -0.18 | G 0.00335 | M -0.0528 | Y 0.0239 | N 0.0307 | P -0.768 | C -0.0723 | S -0.0659 | W -0.0936 | V -0.0209 | D 0.018 | Q 0.141 | I -0.0169 | H -0.0317 | L 0.00804 | T 0.067 | F 0.0154 | R -0.0147
